Experimental data published in doi:10.1101/2021.11.29.470395 (bioRxiv, 2021).

B1: full-length FtsZ from E. coli (natural protein, Escherichia coli, UniProt P0A9A6 1-383, looked up)
chain: MFEPMELTNDAVIKVIGVGGGGGNAVEHMVRERIEGVEFFAVNTDAQALRKTAVGQTIQIGSGITKGLGAGANPEVGRNAADEDRDALRAALEGADMVFIAAGMGGGTGTGAAPVVAEVAKDLGILTVAVVTKPFNFEGKKRMAFAEQGITELSKHVDSLITIPNDKLLKVLGRGISLLDAFGAANDVLKGAVQGIAELITRPGLMNVDFADVRTVMSEMGYAMMGSGVASGEDRAEEAAEMAISSPLLEDIDLSGARGVLVNITAGFDLRLDEFETVGNTIRAFASDNATVVIGTSLDPDMNDELRVTVVATGIGMDKRPEITLVTNKQVQQPVMDRYQQHGMAPLTQEQKPVAKVVNDNAPQTAKEPDYLDIPAFLRKQAD
notes: FtsZ of Escherichia coli, full length, wild type protein; also called EcFtsZ; source: purified as described [48]
B2: full-length FtsZ from methicillin-resistant S. aureus Mu50/ATCC 700699 (natural protein)
chain: MLEFEQGFNHLATLKVIGVGGGGNNAVNRMIDHGMNNVEFIAINTDGQALNLSKAESKIQIGEKLTRGLGAGANPEIGKKAAEESREQIEDAIQGADMVFVTSGMGGGTGTGAAPVVAKIAKEMGALTVGVVTRPFSFEGRKRQTQAAAGVEAMKAAVDTLIVIPNDRLLDIVDKSTPMMEAFKEADNVLRQGVQGISDLIAVSGEVNLDFADVKTIMSNQGSALMGIGVSSGENRAVEAAKKAISSPLLETSIVGAQGVLMNITGGESLSLFEAQEAADIVQDAADEDVNMIFGTVINPELQDEIVVTVIATGFDDKPTSHGRKSGSTGFGTSVNTSSNATSKDESFTSNSSNAQATDSVSERTHTTKEDDIPSFIRNREERRSRRTRR

How the values were obtained:
[1] = target: the molecule itself; test: right angle light scattering at 350 nm; full-length SaFtsZf (49 µM) or EcFtsZ (25 µM), 1 mM GTP with or without BeF3-, 10 mM MgCl2; MES assembly buffer, 25 °C
[2] = target: the molecule itself; test: right angle light scattering at 350 nm

Protein	binding result [1]	binding result [2]
B1	binds	–
B2	–	binds
